Numbering of substitutions follows the chain as printed. Names and notes keep the numbering of the source.
T1: human C1s mutant M12 (G381E & G382E) (human, UniProt P09871 16-688)
T1 construct: The entry is the mutant itself
T1 sequence: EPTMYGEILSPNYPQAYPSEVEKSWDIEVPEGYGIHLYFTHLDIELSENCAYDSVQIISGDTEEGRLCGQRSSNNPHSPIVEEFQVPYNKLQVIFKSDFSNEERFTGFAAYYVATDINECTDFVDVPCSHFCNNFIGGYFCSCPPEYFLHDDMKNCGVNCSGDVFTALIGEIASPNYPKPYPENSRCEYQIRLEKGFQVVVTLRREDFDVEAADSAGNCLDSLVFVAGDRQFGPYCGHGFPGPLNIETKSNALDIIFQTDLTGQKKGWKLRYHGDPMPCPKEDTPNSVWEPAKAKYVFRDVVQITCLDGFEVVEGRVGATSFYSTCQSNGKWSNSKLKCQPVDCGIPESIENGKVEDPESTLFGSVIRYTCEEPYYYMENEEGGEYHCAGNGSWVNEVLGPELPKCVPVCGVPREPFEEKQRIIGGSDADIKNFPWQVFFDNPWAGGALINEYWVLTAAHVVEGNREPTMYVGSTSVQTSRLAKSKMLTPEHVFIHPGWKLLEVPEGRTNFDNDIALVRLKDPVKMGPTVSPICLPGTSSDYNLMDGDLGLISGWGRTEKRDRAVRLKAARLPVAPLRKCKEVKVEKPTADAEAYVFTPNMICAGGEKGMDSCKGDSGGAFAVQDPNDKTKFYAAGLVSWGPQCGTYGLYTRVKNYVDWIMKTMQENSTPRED

T2: cynomolgus monkey C1s (produced in house) (cynomolgus monkey, UniProt P09871 16-685 (human entry), limits assumed)
T2 construct: also called CyC1s
T2 chain: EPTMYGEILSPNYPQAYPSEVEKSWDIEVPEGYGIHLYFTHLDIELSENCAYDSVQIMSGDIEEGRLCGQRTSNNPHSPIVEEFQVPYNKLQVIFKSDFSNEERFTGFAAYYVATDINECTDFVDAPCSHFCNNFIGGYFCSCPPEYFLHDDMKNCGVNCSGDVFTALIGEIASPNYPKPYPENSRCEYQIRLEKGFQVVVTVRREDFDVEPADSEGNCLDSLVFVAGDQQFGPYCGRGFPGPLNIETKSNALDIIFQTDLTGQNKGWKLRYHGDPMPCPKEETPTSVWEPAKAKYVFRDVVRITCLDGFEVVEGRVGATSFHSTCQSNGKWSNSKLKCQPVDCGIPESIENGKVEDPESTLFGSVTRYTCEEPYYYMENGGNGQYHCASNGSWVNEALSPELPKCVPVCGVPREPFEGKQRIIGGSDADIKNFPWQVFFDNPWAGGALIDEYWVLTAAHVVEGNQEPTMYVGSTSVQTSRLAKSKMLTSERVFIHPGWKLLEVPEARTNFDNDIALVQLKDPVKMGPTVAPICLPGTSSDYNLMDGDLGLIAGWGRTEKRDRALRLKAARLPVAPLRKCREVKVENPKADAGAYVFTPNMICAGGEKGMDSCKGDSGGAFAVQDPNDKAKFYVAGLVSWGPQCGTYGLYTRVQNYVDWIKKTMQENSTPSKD

B1: Anti-C1s antibody hz2-8 (H1L2 G80A) (antibody, V domains shown)
VH: QVQLVQSGAEVKKPGASVKVSCKASGFNIKEYYMHWVRQAPEQGLEWMGWIDPENADTIYAQKFQGRVTITADTSTNTAYMELSSLRSEDTAVYYCARSRLFFAYWGQGTLVTVSS
VL: DIQMTQSPKSLSASVGDRVTITCRASQDVRTALDWYQQKPGQSPKLLIYSASYRYSGVPSRFSGSGSGTDFTLTISSLQPEDFATYYCQQQYTTPYTFGQGTKLEIKR
notes: Humanized variant with G80A in HC CDR2 (already in the entry), human IgG1 / kappa
B2: Anti-C1s antibody hz2-8 (H1L2 G80A/T82A) (antibody, V domains shown)
VH: B1 VH with T58A
VL: B1 VL
notes: Humanized variant with G80A and T82A in HC CDR2 (already in the entry), human IgG1 / kappa
B3: Anti-C1s antibody hz2-7(H1L2) (antibody, V domains shown)
VH: EVQLLESGGGLVQPGGSLRLSCAASGFTFSNYFMNWVRQAPGKGLEWVSEIRLKFTNYATHYADSVKGRFTISRDDSKSTLYLQMNSLRAEDTAVYYCTRDYGSRNGYFDYWGQGTLVTVSS
VL: DIVMTQTPLSLPVTPGEPASISCRSSKSLLHSNGNTFLYWFLQKPGQSPQLLIYRMSNLASGVPDRFSGSGSGTDFTLKISRVEAEDVGVYYCMQHLEYPYTFGGGTKLEIKR
notes: Humanized, human IgG1 / kappa; also called hz2-7(1L2)
B4: Anti-C1s antibody 2-8 (antibody, V domains shown)
VH: EVQLQQSGAELVRPGALVKLSCKASGFNIKEYYMHWVKQRPEQGLEWIGWIDPENGDTIYDPKFQGKASITADTSSNTAYLQLSSLTSEDTAVYYCARSRLFFAYWGQGTLVTVSA
VL: DIVMTQSHKFMSTSVGDRVSFTCKASQDVRTAVDWYQQKPGQSPKLLIYSASYRYTGVPDRFTGTGSGTDFTFTISSVQAEDLAVYFCQQQYTTPYTFGGGTKLEIKT
notes: the HC/LC entries may hold it too; also called clone 2-8
B5: Anti-C1s antibody 2-7 (antibody, human IgG1, kappa, V domains shown)
VH: EVKLEESGGGLVPPGGSMKLSCVASGFTFSNYFMNWVRQSPEKGLEWVAEIRLKFTNYATHYAESVEGRFTISRDDSKSSVYLQMNNLRAEDTGIYYCTRDYGSRNGYFDYWGQGTTLTVSS
VL: DIVMTQAAPSVPVTPGESVSISCRSSKSLLHSNGNTFLYWFLQRPGQSPQLLIYRMSNLASGVPDRFSGSGSGTAFTLRVSRVEAEDVGIYYCMQHLEYPYTFGGGTKLEIKT
notes: the HC/LC entries may hold it too; also called clone 2-7

biological target: T1, human C1s mutant M12 (G381E & G382E); experiment: ELISA, plate coated with human C1s mutant M12: G381E, G382E, OD450nm
Experimental: ELISA was carried out by first coating 96-well plates with 200 ng/well of full-length or truncated C1s proteins overnight. The next morning, plates were blocked with SuperBlock T20 blocking buffer (Thermo Scientific 37536) for 1 h with gentle shaking. Then, various concentrations of anti-C1s antibodies diluted in SuperBlock T20 blocking buffer were added to the plates and incubated for 1 h with gentle shaking. Mouse IgG (Sigma-Aldrich 15381) and human IgG1 (BioXCell BP0297) were used as negative controls. The plates were washed before incubating with HRP conjugated secondary antibodies diluted in SuperBlock T20 blocking buffer (goat anti-mouse IgG (H+L) cross-adsorbed secondary antibody HRP (Invitrogen G-21040) or goat anti-human IgG antibody, HRP conjugate (Millipore AP309P)) for 1 h with gentle shaking. At last, the plates were washed and color developed with ELISA liquid HRP substrate (Sigma-Aldrich), followed by stopping the reaction with addition of 1M H₂SO₄ in the same volume as the ELISA liquid substrate. Bound antibody was measured by absorbance at OD₄₅₀ₙₘ.
Binding of anti-C1s antibodies to mutants M1-M20 of human C1s was measured by ELISA as described in Example 4, and results are shown in FIGS. 6B-6U. All anti-C1s humanized variants including hz2-7(H1L2), hz2-8(H1L2 G80A) and hz2-8(H1L2 G80A/T82A) maintained strong binding properties to the majority (16 out of 20) of C1s mutants including M1 (FIG. 6B), M2 (FIG. 6C), M3 (FIG. 6D). M4 (FIG. 6E), M7 (FIG. 6H), M8 (FIG. 6I), M10 (FIG. 6K), M11 (FIG. 6L), M12 (FIG. 6M), M13 (FIG. 6N), M15 (FIG. 6P), M16 (FIG. 6Q), M17 (FIG. 6R), M18 (FIG. 6S), M19 (FIG. 6T) and M20 (FIG. 6U).

EC50 [µg/mL]	Binder
0.005	B1
0.005	B2
0.005	B3

Biological target: T2, cynomolgus monkey C1s (produced in …)
Experiment: ELISA, plate coated with 200 ng/well CyC1s, OD450nm
Experimental: The next morning, plates were blocked with SuperBlock T20 blocking buffer (Thermo Scientific 37536) for 1 h with gentle shaking. Then, various concentrations of anti-C1s antibodies diluted in SuperBlock T20 blocking buffer were added to the plates and incubated for 1 h with gentle shaking. Mouse IgG (Sigma-Aldrich I5381) and Human IgG1 (BioXCell BP0297) were used as negative controls. The plates were washed before incubating with HRP conjugated secondary antibodies diluted in SuperBlock T20 blocking buffer (goat anti-mouse IgG (H+L) cross-adsorbed secondary antibody HRP (Invitrogen G-21040) or goat anti-human IgG antibody, HRP conjugate (Millipore AP309P)) for 1 h with gentle shaking. At last, the plates were washed and color developed with ELISA liquid substrate (Sigma-Aldrich), followed by stopping the reaction with addition of the same volume of […] 1M H₂SO₄. Bound antibody was measured by absorbance at OD₄₅₀ₙₘ.

EC50 [µg/mL]	Binder
0.01	B2
0.012	B4
0.011	B5
0.015	B3

Reference: patent US20230051715A1 (MABWELL THERAPEUTICS, published 2023)
